Earlier results as cited in publication PMC4443854.

Molecular target: actin filaments (F-actin) (Oryctolagus cuniculus) (UniProt P68135)

Kd: 2.5 µM
Substance: AIP1 (from UniProt O75083)
